In patent US20160264649A1:

Tests used:
Experiment in all cases: cell-based or functional assay
[1] = target: HIV-1 Env of isolate MGRM-D-024 (subtype D) (HIV-1)
[2] = target: HIV-1 Env of isolate 92UG114 (subtype D) (HIV-1)
[3] = target: HIV-1 Env of isolate 98CN009 (subtype CRF07_BC) (HIV-1)
[4] = target: HIV-1 Env of isolate MGRM-F1-023 (subtype F) (HIV-1)
[5] = target: HIV-1 Env of pseudovirus isolate MGRM-G-006 (subtype G) (HIV-1)
[6] = target: HIV-1 Env of isolate 92UG005 (subtype D) (HIV-1)
[7] = target: HIV-1 Env of isolate MGRM-D-011 (subtype D) (HIV-1)
[8] = target: HIV-1 Env of pseudovirus isolate MGRM-G-009 (subtype G) (HIV-1)
[9] = target: HIV-1 Env of isolate MGRM-F1-014 (subtype F) (HIV-1)
[10] = target: HIV-1 Env of isolate MGRM-D-022 (subtype D) (HIV-1)
[11] = target: HIV-1 Env of isolate MGRM-D-002 (subtype D) (HIV-1)
[12] = target: HIV-1 Env of isolate MGRM-D-004 (subtype D) (HIV-1)
[13] = target: HIV-1 Env of pseudovirus isolate MGRM-G-017 (subtype G) (HIV-1)
[14] = target: HIV-1 Env of isolate MGRM-F1-008 (subtype F) (HIV-1)
[15] = target: HIV-1 Env of isolate MGRM-F1-006 (subtype F) (HIV-1)
[16] = target: HIV-1 Env of isolate MGRM-F1-020 (subtype F) (HIV-1)
[17] = target: HIV-1 Env of isolate MGRM-D-016 (subtype D) (HIV-1)
[18] = target: HIV-1 Env of pseudovirus isolate MGRM-G-014 (subtype G) (HIV-1)
[19] = target: HIV-1 Env of isolate MGRM-D-021 (subtype D) (HIV-1)
[20] = target: HIV-1 Env of isolate MGRM-D-013 (subtype D) (HIV-1)
[21] = target: HIV-1 Env of isolate MGRM-F1-022 (subtype F) (HIV-1)
[22] = target: envelope of aMLV pseudovirus (negative control)
[23] = target: HIV-1 Env of isolate MGRM-F1-018 (subtype F) (HIV-1)
[24] = target: HIV-1 Env of isolate MGRM-D-028 (subtype D) (HIV-1)
[25] = target: HIV-1 Env of isolate MGRM-D-012 (subtype D) (HIV-1)
[26] = target: HIV-1 Env of pseudovirus isolate MGRM-G-013 (subtype G) (HIV-1)
[27] = target: HIV-1 Env of isolate MGRM-D-026 (subtype D) (HIV-1)
[28] = target: HIV-1 Env of pseudovirus isolate MGRM-G-025 (subtype G) (HIV-1)
[29] = target: HIV-1 Env of isolate MGRM-F1-010 (subtype F) (HIV-1)
[30] = target: HIV-1 Env of pseudovirus isolate MGRM-G-028 (subtype G) (HIV-1)
[31] = target: HIV-1 Env of isolate MGRM-D-029 (subtype D) (HIV-1)
[32] = target: HIV-1 Env of pseudovirus isolate MGRM-G-024 (subtype G) (HIV-1)
[33] = target: HIV-1 Env of pseudovirus isolate MGRM-G-016 (subtype G) (HIV-1)
[34] = target: HIV-1 Env of isolate MGRM-F1-017 (subtype F) (HIV-1)
[35] = target: HIV-1 Env of isolate 92UG001 (subtype D) (HIV-1)
[36] = target: HIV-1 Env of pseudovirus isolate MGRM-G-027 (subtype G) (HIV-1)
[37] = target: HIV-1 Env of isolate MGRM-F1-021 (subtype F) (HIV-1)
[38] = target: HIV-1 Env of pseudovirus isolate MGRM-G-015 (subtype G) (HIV-1)
[39] = target: HIV-1 Env of isolate MGRM-F1-013 (subtype F) (HIV-1)
[40] = target: HIV-1 Env of isolate MGRM-D-001 (subtype D) (HIV-1)
[41] = target: HIV-1 Env of isolate 98CN006 (subtype CRF08_BC) (HIV-1)
[42] = target: HIV-1 Env of isolate MGRM-D-018 (subtype D) (HIV-1)
[43] = target: HIV-1 Env of isolate MGRM-F1-004 (subtype F) (HIV-1)
[44] = target: HIV-1 Env of isolate MGRM-D-019 (subtype D) (HIV-1)
[45] = target: HIV-1 Env of isolate MGRM-D-014 (subtype D) (HIV-1)
[46] = target: HIV-1 Env of isolate MGRM-F1-015 (subtype F) (HIV-1)
[47] = target: HIV-1 Env of pseudovirus isolate MGRM-G-001 (subtype G) (HIV-1)
[48] = target: HIV-1 Env of isolate MGRM-F1-016 (subtype F) (HIV-1)
[49] = target: HIV-1 Env of pseudovirus isolate MGRM-G-019 (subtype G) (HIV-1)
[50] = target: HIV-1 Env of isolate MGRM-D-020 (subtype D) (HIV-1)
[51] = target: HIV-1 Env of isolate MGRM-D-008 (subtype D) (HIV-1)
[52] = target: HIV-1 Env of isolate MGRM-F1-012 (subtype F) (HIV-1)
[53] = target: HIV-1 Env of isolate 92UG024 (subtype D) (HIV-1)
[54] = target: HIV-1 Env of isolate MGRM-D-003 (subtype D) (HIV-1)
[55] = target: HIV-1 Env of isolate MGRM-D-005 (subtype D) (HIV-1)
[56] = target: HIV-1 Env of pseudovirus isolate MGRM-G-011 (subtype G) (HIV-1)
[57] = target: HIV-1 Env of isolate 92UG046 (subtype D) (HIV-1)
[58] = target: HIV-1 Env of pseudovirus isolate MGRM-G-004 (subtype G) (HIV-1)

B1: PGT-128 (antibody, V domains shown)
VH: QPQLQESGPTLVEASETLSLTCAVSGDSTAACNSFWGWVRQPPGKGLEWVGSLSHCASYWNRGWTYHNPSLKSRLTLALDTPKNLVFLKLNSVTAADTATYYCARFGGEVLRYTDWPKPAWVDLWGRGTLVTVSS
VL: QSALTQPPSASGSPGQSITISCTGTSNNFVSWYQQHAGKAPKLVIYDVNKRPSGVPDRFSGSKSGNTASLTVSGLQTDDEAVYYCGSLVGNWDVIFGGGTKLTVL
- IC50 (neutralization) [1]: 0.067 µg/mL
- IC50 (neutralization) [2]: 0.083 µg/mL
- IC50 (neutralization) [3]: 0.025 µg/mL
- IC50 (neutralization) [4]: 7 ng/mL
- IC50 [5]: > 50 µg/mL
- IC50 (neutralization) [6]: 0.018 µg/mL
- IC50 (neutralization) [7]: 7 ng/mL
- IC50 [8]: > 50 µg/mL
- IC50 (neutralization) [9]: 0.277 µg/mL
- IC50 (neutralization) [10]: > 50 µg/mL
- IC50 (neutralization) [11]: 0.011 µg/mL
- IC50 (neutralization) [12]: 24.9 µg/mL
- IC50 [13]: 0.319 µg/mL
- IC50 (neutralization) [14]: > 50 µg/mL
- IC50 (neutralization) [15]: 0.763 µg/mL
- IC50 (neutralization) [16]: 0.355 µg/mL
- IC50 (neutralization) [17]: > 50 µg/mL
- IC50 [18]: 4 ng/mL
- IC50 (neutralization) [19]: 0.014 µg/mL
- IC50 (neutralization) [20]: 8.85 µg/mL
- IC50 (neutralization) [21]: 4.54 µg/mL
- IC50 [22]: > 50 µg/mL
- IC50 (neutralization) [23]: 0.023 µg/mL
- IC50 (neutralization) [24]: > 50 µg/mL
- IC50 (neutralization) [25]: > 50 µg/mL
- IC50 [26]: 0.995 µg/mL
- IC50 (neutralization) [27]: > 50 µg/mL
- IC50 [28]: 0.017 µg/mL
- IC50 (neutralization) [29]: 16.7 µg/mL
- IC50 [30]: 8 ng/mL
- IC50 (neutralization) [31]: > 50 µg/mL
- IC50 [32]: 0.095 µg/mL
- IC50 [33]: > 50 µg/mL
- IC50 (neutralization) [34]: 11.7 µg/mL
- IC50 (neutralization) [35]: > 50 µg/mL
- IC50 [36]: 0.313 µg/mL
- IC50 (neutralization) [37]: > 50 µg/mL
- IC50 [38]: > 50 µg/mL
- IC50 (neutralization) [39]: 12.7 µg/mL
- IC50 (neutralization) [40]: 0.138 µg/mL
- IC50 (neutralization) [41]: 0.015 µg/mL
- IC50 (neutralization) [42]: 8 ng/mL
- IC50 (neutralization) [43]: 0.027 µg/mL
- IC50 (neutralization) [44]: > 50 µg/mL
- IC50 (neutralization) [45]: 0.013 µg/mL
- IC50 (neutralization) [46]: > 50 µg/mL
- IC50 [47]: 0.019 µg/mL
- IC50 (neutralization) [48]: 1.21 µg/mL
- IC50 [49]: 0.01 µg/mL
- IC50 (neutralization) [50]: 0.011 µg/mL
- IC50 (neutralization) [51]: 0.033 µg/mL
- IC50 (neutralization) [52]: 7 ng/mL
- IC50 (neutralization) [53]: > 50 µg/mL
- IC50 (neutralization) [54]: 0.019 µg/mL
- IC50 (neutralization) [55]: 0.051 µg/mL
- IC50 [56]: 8.21 µg/mL
- IC50 (neutralization) [57]: > 50 µg/mL
- IC50 [58]: > 50 µg/mL
